From US20250277026A1 (NOVAROCK BIOTHERAPEUTICS, published 2025)
Where a chain is given by its changes, count along the chain named. Names may count otherwise. One block for each binder: values may come before it.

How the values were obtained:
human Claudin-6 [1] = target: T1, human Claudin-6 (human, UniProt P56747 1-220); experiment: FACS, Claudin-6-CHO-K1 cells, 5 µg/ml
T1 construct: also called CLDN6
T1 sequence: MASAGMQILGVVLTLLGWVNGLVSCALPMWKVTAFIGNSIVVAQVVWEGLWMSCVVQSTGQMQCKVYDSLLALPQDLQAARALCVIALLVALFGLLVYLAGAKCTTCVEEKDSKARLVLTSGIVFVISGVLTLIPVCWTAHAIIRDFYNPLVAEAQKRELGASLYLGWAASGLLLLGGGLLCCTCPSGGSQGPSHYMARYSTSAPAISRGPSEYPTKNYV
Method: (§1) Briefly, Claudin-6-CHO-K1 cells verse parental CHO-K1 cells were incubated with anti-CLDN6 antibodies for 2 hours at 4° C. Cells were fixed with 2% PFA (Alfa Aesar, cat #: J61899) for 15 minutes at 4° C. and then washed. […] Flow cytometric analyses were performed on a flow cytometry instrument (Intellicyte, IQue plus, Sartorius).

human Claudin-6 [2] = target: T1, human Claudin-6; experiment: FACS, NEC8 cells (endogenous CLDN6), recombinant antibody
human Claudin-6 [3] = target: T1, human Claudin-6; experiment: cell-based or functional assay
human Claudin-4 [4] = target: T2, human Claudin-4 (human, UniProt O14493 1-209); experiment: FACS on MCF7 cells, which endogenously express Claudin-3 and Claudin-4; MFI relative to the isotype control
T2 construct: On transfected CHO-K1 cells, or endogenous on MCF7 cells; also called CLDN4
T2 sequence: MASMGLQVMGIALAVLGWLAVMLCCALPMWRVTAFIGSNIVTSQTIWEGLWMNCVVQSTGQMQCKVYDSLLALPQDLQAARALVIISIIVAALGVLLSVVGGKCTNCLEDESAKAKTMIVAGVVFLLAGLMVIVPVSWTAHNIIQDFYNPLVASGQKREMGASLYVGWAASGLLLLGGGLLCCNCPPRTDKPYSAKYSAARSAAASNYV

human Claudin-6 [5] = target: T1, human Claudin-6; experiment: cell-based or functional assay; remark: listed apart in the source
human Claudin-4 [6] = target: T2, human Claudin-4; experiment: FACS on Claudin-4-CHO-K1 cells, MFI
Method: as §1

human Claudin-6 [7] = target: T1, human Claudin-6; experiment: FACS dose response, Claudin-6-HEK293 cells
human Claudin-6 [8] = target: T1, human Claudin-6; experiment: FACS dose response, Claudin-6-CHO cells
Method: as §1

human Claudin-6 [9] = target: T1, human Claudin-6; experiment: FACS dose response, NEC8 cells (endogenous CLDN6)
human Claudin-4 [10] = target: T2, human Claudin-4; experiment: FACS on Claudin-4-CHO-K1 cells, MFI relative to the isotype control
Method: as §1

human Claudin-9 [11] = target: T3, human Claudin-9 (human, UniProt O95484 1-217); experiment: FACS, Claudin-9-HEK293 cells, 5 µg/ml
T3 construct: On transfected HEK293 cells; also called CLDN9
T3 sequence: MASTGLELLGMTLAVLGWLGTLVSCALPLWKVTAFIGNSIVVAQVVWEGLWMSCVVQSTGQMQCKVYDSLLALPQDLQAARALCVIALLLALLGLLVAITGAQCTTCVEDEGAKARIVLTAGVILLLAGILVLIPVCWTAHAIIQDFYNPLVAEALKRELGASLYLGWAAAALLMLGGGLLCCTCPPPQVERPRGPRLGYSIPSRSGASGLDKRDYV
Method: (§2) The binding specificity of the disclosed anti-Claudin-6 antibodies were further assessed for binding to Claudin-9 by FACS. Briefly, Claudin-9-HEK293 cells (GenScript, Item #U3288DL180_4) were incubated with recombinant Claudin-6 antibodies for 2 hours at 4° C. Cells were fixed with 2% PFA (Alfa Aesar, cat #: J61899) for 15 minutes at 4° C. and then washed. […] Flow cytometric analyses were performed on a flow cytometry instrument (Intellicyte, IQue plus, Sartorius).

human Claudin-6 [12] = target: T1, human Claudin-6; experiment: FACS, OV90 cells (endogenous CLDN6)
Method: (§3) Cells were fixed with 2% PFA (Alfa Aesar, catalog number: J61899) for 15 minutes at 4° C. and then washed. […] Flow cytometric analyses were performed on a flow cytometry instrument (Intellicyte, IQue plus, Sartorius).

human Claudin-6 [13] = target: T1, human Claudin-6; experiment: cell-based or functional assay; remark: listed apart in the source
human Claudin-9 [14] = target: T3, human Claudin-9; experiment: FACS dose response, Claudin-9-HEK293 cells
Method: as §2

human Claudin-6 [15] = target: T1, human Claudin-6; experiment: FACS dose response, Claudin-6-HEK293 cells; remark: listed apart in the source
human Claudin-6 [16] = target: T1, human Claudin-6; experiment: FACS, NEC8 cells (endogenous CLDN6)
Method: as §3

human Claudin-6 [17] = target: T1, human Claudin-6; experiment: cell-based or functional assay; remark: listed apart in the source
human Claudin-6 [18] = target: T1, human Claudin-6; experiment: FACS, Claudin-6-HEK293 cells, 5 µg/ml
human Claudin-6 [19] = target: T1, human Claudin-6; experiment: FACS dose response, Claudin-6-CHO-K1 cells
Method: (§4) The anti-CLDN6 antibodies were also evaluated for their binding affinity to Claudin-6 overexpressing cell lines by FACS.

human Claudin-6 [20] = target: T1, human Claudin-6; experiment: FACS dose response, Claudin-6-HEK293 cells; remark: listed apart in the source
Method: as §4

human Claudin-6 [21] = target: T1, human Claudin-6; experiment: FACS dose response, NEC8 cells (endogenous CLDN6); remark: listed apart in the source
Method: as §3, §4

human Claudin-6 [22] = target: T1, human Claudin-6; experiment: FACS, NEC8 cells (endogenous CLDN6); remark: listed apart in the source
Method: as §3

human Claudin-3 [23] = target: T4, human Claudin-3 (human, UniProt O15551 1-220); experiment: FACS, Claudin-3-CHO-K1 cells, serial dilution, MFI
T4 construct: On transfected CHO-K1 cells, or endogenous on MCF7 cells; also called CLDN3
T4 sequence: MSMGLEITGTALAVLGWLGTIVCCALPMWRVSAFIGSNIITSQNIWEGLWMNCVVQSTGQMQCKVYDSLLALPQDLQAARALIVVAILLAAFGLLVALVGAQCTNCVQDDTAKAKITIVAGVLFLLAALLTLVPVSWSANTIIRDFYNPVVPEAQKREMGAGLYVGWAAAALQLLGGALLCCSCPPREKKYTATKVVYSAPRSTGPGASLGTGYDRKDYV
Method: as §1

human Claudin-3 [24] = target: T4, human Claudin-3; experiment: FACS, Claudin-3-CHO-K1 cells, serial dilution, MFI; remark: listed apart in the source
Method: as §1

human Claudin-4 [25] = target: T2, human Claudin-4; experiment: FACS, Claudin-4-CHO-K1 cells, serial dilution, MFI
Method: as §1

human Claudin-4 [26] = target: T2, human Claudin-4; experiment: FACS, Claudin-4-CHO-K1 cells, serial dilution, MFI; remark: listed apart in the source
Method: as §1

human Claudin-3 [27] = target: T4, human Claudin-3; experiment: FACS, Claudin-3-CHO-K1 cells, serial dilution, MFI; remark: listed apart in the source
Method: as §1

human Claudin-3 [28] = target: T4, human Claudin-3; experiment: FACS on Claudin-3-CHO-K1 cells, MFI relative to the isotype control
Method: as §1

human Claudin-4 [29] = target: T2, human Claudin-4; experiment: FACS on Claudin-4-CHO-K1 cells, MFI; remark: listed apart in the source
Method: as §1

human Claudin-4 [30] = target: T2, human Claudin-4; experiment: FACS on Claudin-4-CHO-K1 cells, MFI relative to the isotype control; remark: listed apart in the source
Method: as §1

human Claudin-3 [31] = target: T4, human Claudin-3; experiment: FACS on MCF7 cells, which endogenously express Claudin-3 and Claudin-4, MFI
human Claudin-3 [32] = target: T4, human Claudin-3; experiment: FACS on MCF7 cells, which endogenously express Claudin-3 and Claudin-4; MFI relative to the isotype control
human Claudin-4 [33] = target: T2, human Claudin-4; experiment: as above; remark: listed apart in the source

B1: NR.N6.Ab1 (antibody, human IgG1, V domains shown)
VH: QVQLVQSGAEVKKPGASVKVSCKASGNTFTSYDINWVRQATGQGLEWMGWMNPNSGNTGYAQKFQGRVTMTRNTSISTAYMELSSLRSEDTAVYYCVYYNYVWGSFRFDDWGQGTLVTVSS
VL: DIQLTQSPSFLSASVGDRVTITCRASQGISSYLAWYQQKPGKAPKLLIYAASTLQSGVPSRFSGSGSGTEFTLAVSSLQPEDFATYYCQQLNSYPYTFGQGTKLEIK
notes: Human variable domains from Trianni mice; also called NR.NR6.Ab1
fold MFI over isotype control (human Claudin-6 [1]): 28 fold | fold MFI over isotype control (human Claudin-6 [2]): 32 fold | ADCC reporter assay on NEC8 cells, EC50 (human Claudin-6 [3]): 0.4 nM | fold MFI over isotype control (human Claudin-4 [4]): 0.9 x | endocytosis-mediated cytotoxicity on OV90 cells, EC50 (human Claudin-6 [5]): 1.08 nM | binding result (human Claudin-4 [6]): no binding | EC50 (human Claudin-6 [7]): 0.55 nM | EC50 (human Claudin-6 [8]): 0.97 nM | EC50 (human Claudin-6 [9]): 1.39 nM | fold MFI over isotype control (human Claudin-4 [10]): 1.1 x | fold MFI over isotype control (human Claudin-9 [11]): 16 fold | fold MFI over isotype control (human Claudin-6 [12]): 19 fold | endocytosis-mediated cytotoxicity (anti-hFc Fab-MMAF, CellTiter-Glo) on NEC8 cells, EC50 mean (St. Dev. 0.11) (human Claudin-6 [13]): 0.2 nM | EC50 (human Claudin-9 [14]): 6.72 nM | EC50 (human Claudin-6 [15]): 0.63 nM | fold MFI over isotype control (human Claudin-6 [16]): 27 fold | endocytosis killing (anti-hFc Fab-MMAF, CellTiter-Glo, 72 h) on NEC8 cells, EC50 (human Claudin-6 [17]): 0.14 nM

B4: NR.N6.Ab4 (antibody, V domains shown)
VH: QVQLVESGGGVVQPGRSLRLSCAASGFIFSSYGMHWVRQAPGKGLEWVAVIWYDGSNKFYADSVKGRFTISRDNSRKTLYLQMNSLRAEDTAVYYCARDGRYFDWGGSYYYYYGMDVWGQGTTVTVSS
VL: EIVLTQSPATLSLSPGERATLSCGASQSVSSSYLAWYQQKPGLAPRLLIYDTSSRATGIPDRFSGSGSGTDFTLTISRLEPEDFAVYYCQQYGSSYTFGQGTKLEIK
fold MFI over isotype control (human Claudin-6 [18]): 23 fold | ADCC reporter assay on NEC8 cells, EC50 (human Claudin-6 [3]): 9.83 nM | EC50 (human Claudin-6 [19]): 4.79 nM | binding result (human Claudin-3 [24]): no binding (tested: log 1.5 (about 33 nM)) | EC50 (human Claudin-6 [20]): 15.7 nM | EC50 (human Claudin-6 [21]): 8.34 nM | fold MFI over isotype control (human Claudin-6 [22]): 19 fold | binding result (human Claudin-4 [25]): no binding (tested: log 1.5 (about 33 nM)) | endocytosis killing (anti-hFc Fab-MMAF, CellTiter-Glo, 72 h) on NEC8 cells, EC50 (human Claudin-6 [17]): 0.41 nM

B5: NR.N6.Ab5 (antibody, V domains shown)
VH: B4 VH with V11A, V50I, Y53F, S56R, F59N, R76K, Q82E, N84S
VL: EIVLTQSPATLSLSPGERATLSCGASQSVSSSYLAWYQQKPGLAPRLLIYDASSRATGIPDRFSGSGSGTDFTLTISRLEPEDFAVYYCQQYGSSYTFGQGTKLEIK
notes: LCDR 41, 45, 43); also called NR.4.N6.Ab5
fold MFI over isotype control (human Claudin-6 [18]): 24 fold | ADCC reporter assay on NEC8 cells, EC50 (human Claudin-6 [3]): 3.78 nM | binding result (human Claudin-4 [26]): no binding (tested: log 1.5 (about 33 nM)) | EC50 (human Claudin-6 [19]): 3.99 nM | binding result (human Claudin-3 [27]): no binding (tested: log 1.5 (about 33 nM)) | EC50 (human Claudin-6 [20]): 4.13 nM | EC50 (human Claudin-6 [21]): 5.92 nM | fold MFI over isotype control (human Claudin-6 [22]): 21 fold | endocytosis killing (anti-hFc Fab-MMAF, CellTiter-Glo, 72 h) on NEC8 cells, EC50 (human Claudin-6 [17]): 0.26 nM

More lines, main results first:

EC50 (human Claudin-6 [9]): 0.74 nM | EC50 (human Claudin-6 [15]): 0.42 nM
B2: NR.N6.Ab1 variant N73D (antibody, V domains shown)
VH: B1 VH with N73D
VL: B1 VL
notes: the LALA changes of the constant region are explained nowhere; also called NR.N6.Ab1N73D; NR.N6.Ab1 N73D

fold MFI over isotype control (human Claudin-6 [18]): 31 fold | ADCC reporter assay on NEC8 cells, EC50 (human Claudin-6 [3]): 6.43 nM | EC50 (human Claudin-6 [19]): 4.69 nM | EC50 (human Claudin-6 [20]): 5.17 nM | EC50 (human Claudin-6 [21]): 3.27 nM | fold MFI over isotype control (human Claudin-6 [22]): 20 fold
B3: NR.N6.Ab3 (antibody, V domains shown)
VH: QVQLVESGGGVVQPGRSLRLSCAASGFTFSGYGMHWVRQAPGKGLEWVAAIWYDGSNKYYADSVKGRFTISSDNSKNTLYLQMKSLRAEDTAVYYCAREWYSSGWSMYDVFDIWGQGTMVTVSS
VL: QTVVTQEPSFSVSPGGTVTLTCGLSSGSVSTSYYPSWYQQTPGQAPRTLIYSTNTRSSGVPDRFSGSILGNKAALTITGAQADDESDYYCVLYMGSGIWVFGGGTKLTVL
binding result (human Claudin-3 [23]): no binding (tested: log 1.5 (about 33 nM)) | endocytosis killing (anti-hFc Fab-MMAF, CellTiter-Glo, 72 h) on NEC8 cells, EC50 (human Claudin-6 [17]): 0.51 nM

fold MFI over isotype control (human Claudin-6 [1]): 24 fold | fold MFI over isotype control (human Claudin-3 [28]): 0.8 x | binding result (human Claudin-4 [29]): no binding | EC50 (human Claudin-6 [7]): 1 nM | EC50 (human Claudin-6 [8]): 6.88 nM | fold MFI over isotype control (human Claudin-4 [30]): 0.9 x | binding result (human Claudin-3 [31]): no binding | fold MFI over isotype control (human Claudin-9 [11]): 53 fold | fold MFI over isotype control (human Claudin-6 [12]): 17 fold | fold MFI over isotype control (human Claudin-3 [32]): 1.1 x | fold MFI over isotype control (human Claudin-4 [33]): 1.1 x | EC50 (human Claudin-9 [14]): 1.49 nM | fold MFI over isotype control (human Claudin-6 [16]): 25 fold
B6: NR.N6.Ab2 (antibody, V domains shown)
VH: QVQLVESGGGVVQPGRSLRLSCTASGFTFSHYGMHWVRQAPGKGLEWVSFLWFDGSKDNYADSVKGRFTISRDNSKNMLYLRMDSLRAEDTAVYYCARNGGLTIFDYWGQGTLVTVSS
VL: AIQLTQSPSSLSASVGDRVTITCRASQGINSWLAWYQQKPEKAPKSLIYAASSLQSGVPSRFSGSGSGTDFTLTISSLQPEDFATYYCQQYNFYPYTFGQGTKLEII
notes: hybridoma-purified antibody in the Claudin-3-CHO-K1, Claudin-4-CHO-K1 and MCF7 assays
endocytosis-mediated cytotoxicity on OV90 cells, EC50 (human Claudin-6 [5]): 2.32 nM | endocytosis-mediated cytotoxicity (anti-hFc Fab-MMAF, CellTiter-Glo) on NEC8 cells, EC50 mean (St. Dev. 0.07) (human Claudin-6 [13]): 0.1 nM
